Laboratory results: US20090325290A1

Legend:
[1] = target: HLA-DR (allotype and form not stated); assay: not stated (Z. A. Nagy, unpublished)
[2] = target: HLA-DR antigen on the surface of HLA-DR positive cells (tumor cell lines other than PRIESS and LG-2, normal B cells, or cell line not stated) (human); assay: cell-based or functional assay
[3] = target: HLA-DR on the human B-lymphoblastoid cell line LG-2 (human); assay: cell-based or functional assay

Chain of murine anti-HLA-DR antibody L243 (VH): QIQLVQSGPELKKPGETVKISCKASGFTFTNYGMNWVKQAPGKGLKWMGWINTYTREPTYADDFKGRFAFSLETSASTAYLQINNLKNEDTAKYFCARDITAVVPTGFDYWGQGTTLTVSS
Chain of murine anti-HLA-DR antibody L243 (VL): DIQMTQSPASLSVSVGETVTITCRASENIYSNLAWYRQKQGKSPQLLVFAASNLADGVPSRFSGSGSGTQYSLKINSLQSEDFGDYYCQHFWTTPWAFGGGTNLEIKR

Kd [1]: 10 nM
Substance: murine anti-HLA-DR antibody L243
% killing of ARH-77 cells (DR 12), 200 nM, 4 h [2]: 88%
% killing of BJAB cells (DR 12, 13), 200 nM, 4 h [2]: 53%
% killing of BONNA-12 cells, 200 nM, 4 h [2]: 92%
% killing of DOHH-2 cells (DR 1, 2), 200 nM, 4 h [2]: 29%
% killing of EOL-1 cells, 200 nM, 4 h [2]: 22%
% killing of GRANTA-519 cells (DR 2, 11), 200 nM, 4 h [2]: 83%
% killing of HC-1 cells, 200 nM, 4 h [2]: 88%
% killing of HD-MY-Z cells, 200 nM, 4 h [2]: 35%
% killing of HDLM-2 cells, 200 nM, 4 h [2]: 77%
% killing of KARPAS-299 cells (DR 1, 2), 200 nM, 4 h [2]: 78%
% killing of KARPAS-422 cells (DR 2, 4), 200 nM, 4 h [2]: 25%
% killing of KM-H2 cells, 200 nM, 4 h [2]: 81%
% killing of L1236 cells, 200 nM, 4 h [2]: 52%
% killing of L-363 cells, 200 nM, 4 h [2]: 6%
% killing of L-428 cells (DR 12), 200 nM, 4 h [2]: 82%
% killing of LP-1 cells, 200 nM, 4 h [2]: 12%
% killing of MHH-CALL-4 cells (DR 1, 2), 200 nM, 4 h [2]: 35%
% killing of MHH-PREB-1 cells, 200 nM, 4 h [2]: 3%
% killing of MN-60 cells (DR 10, 13), 200 nM, 4 h [2]: 46%
% killing of NALM-1 cells (DR 1, 4), 200 nM, 4 h [2]: 44%
% killing of RAJI cells (DR 10, 17), 200 nM, 4 h [2]: 69%
% killing of RPMI-8226 cells, 200 nM, 4 h [2]: 6%
% killing of SR-786 cells (DR 1, 2), 200 nM, 4 h [2]: 3%
% killing of LG-2 cells, 200 nM, 4 h [3]: 79%
